Measured values: US20120316071A1 (published 2012)
Values belong to the binder of their own block, whether it stands above or below them.

Tests used:
[1] = biological target: T1, rHuman CD44/Fc Chimera, CF (R&D Systems Cat#3660-CD) (human, UniProt P16070 21-220); experiment: ECL multispot (MSD) assay, antigen spotted on plate, 10 nM Fab;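 also: bound Fab detected with a TAG-labelled detection antibody (1 h, 20 °C), electrochemiluminescence read and compared with each well's blank, signal/blank of 4 or above scored as hit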
T1 construct: Bought recombinant Fc chimera; Fc part of the bought chimera not given

[2] = biological target: T2, Recombinant Human DLL4 (R&D Systems Cat#1506-D4/CF) (human, UniProt Q9NR61 27-524); experiment: as above
T2 construct: Bought recombinant protein; also called delta-like protein 4; rHuman DLL4

[3] = biological target: T3, rHuman EGF R/Fc Chimera, CF (R&D Systems Cat#344-ER) (human, UniProt P00533 25-645); experiment: as above
T3 construct: Bought recombinant Fc chimera; also called epidermal growth factor receptor; Fc part of the bought chimera not given

[4] = biological target: T4, rHuman HGF R/c-MET/Fc Chimera, CF (R&D Systems Cat#358-MT/CF) (human, UniProt P08581 25-932); experiment: as above
T4 construct: Bought recombinant Fc chimera; also called HGF R/Fc; hepatocyte growth factor receptor; Fc part of the bought chimera not given

[5] = biological target: T5, rHuman ErbB2/Fc Chimera, CF (R&D Systems Cat#1129-ER) (human, UniProt P04626 23-652); experiment: as above
T5 construct: Bought recombinant Fc chimera; also called human epidermal growth factor 2 receptor; Fc part of the bought chimera not given

[6] = biological target: T6, rHuman Erythropoietin R/Fc Chimera, CF (R&D Systems Cat#963-ER) (human, UniProt P19235 25-250); experiment: as above
T6 construct: Bought recombinant Fc chimera; also called EPO R; EPO R/Fc; Fc part of the bought chimera not given
T6 sequence (looked up): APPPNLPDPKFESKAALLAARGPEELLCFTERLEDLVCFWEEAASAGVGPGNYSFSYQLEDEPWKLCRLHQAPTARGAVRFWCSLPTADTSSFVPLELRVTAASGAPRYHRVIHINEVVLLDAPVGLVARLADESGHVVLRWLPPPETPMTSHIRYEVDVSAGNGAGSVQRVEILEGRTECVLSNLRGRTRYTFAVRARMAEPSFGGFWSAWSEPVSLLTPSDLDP

[7] = biological target: T7, rHuman P-Cadherin/Fc Chimera, CF (R&D Systems Cat#861-PC) (human, UniProt P22223 108-654); experiment: as above
T7 construct: Bought recombinant Fc chimera; Fc part of the bought chimera not given

[8] = biological target: T8, rHuman Notch-1/Fc Chimera, CF (R&D Systems Cat#3647-TK) (human, UniProt P46531 19-526); experiment: as above
T8 construct: Bought recombinant Fc chimera; Fc part of the bought chimera not given

[9] = biological target: T9, rHuman IGF-1 sR, CF (R&D Systems Cat#391-GR) (human, UniProt P08069 31-932); experiment: as above
T9 construct: Bought soluble receptor; also called insulin-like growth factor-1 soluble receptor

[10] = biological target: T10, Recombinant Human DLL4 (R&D Systems Cat#1506-D4/CF) (human, UniProt Q9NR61 27-524); experiment: ECL (MSD) multispot binding assay, antigen spotted on plate, 20 nM Fab;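 also: purified Fab incubated 1 h at 20 °C on antigen-spotted plate, bound Fab revealed with TAG detection antibody, ECL read, antigen signal divided by same-well blank, ratio ≥4 counted as hit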
T10 construct: Bought recombinant protein; also called delta-like protein 4; rHuman DLL4

[11] = biological target: T11, rHuman P-Cadherin/Fc Chimera, CF (R&D Systems Cat#861-PC) (human, UniProt P22223 108-654); experiment: as above
T11 construct: Bought recombinant protein; Fc part of the bought chimera not given

[12] = biological target: T12, rHuman CD44/Fc Chimera, CF (R&D Systems Cat#3660-CD) (human, UniProt P16070 21-220); experiment: as above
T12 construct: Bought recombinant protein; Fc part of the bought chimera not given

[13] = biological target: T13, rHuman IGF-1 sR, (IGF-1 sR), CF (R&D Systems Cat#391-GR) (human, UniProt P08069 31-932); experiment: as above
T13 construct: Bought recombinant soluble receptor; also called insulin-like growth factor-1 soluble receptor

[14] = biological target: T14, rHuman Notch-1/Fc Chimera, CF (R&D Systems Cat#3647-TK) (human, UniProt P46531 19-526); experiment: as above
T14 construct: Bought recombinant protein; Fc part of the bought chimera not given

[15] = biological target: T15, Recombinant Human DLL4 (R&D Systems Cat#1506-D4/CF) (human, UniProt Q9NR61 27-524); experiment: as above; remark: listed apart in the source
T15 construct: Bought recombinant protein; also called delta-like protein 4; rHuman DLL4

[16] = biological target: T16, rHuman CD44/Fc Chimera, CF (R&D Systems Cat#3660-CD) (human, UniProt P16070 21-220); experiment: as above
T16 construct: Bought reagent; Fc part of the bought chimera not given

[17] = biological target: T17, rHuman ErbB2/Fc Chimera, CF (R&D Systems Cat#1129-ER) (human, UniProt P04626 23-652); experiment: as above
T17 construct: Bought reagent; also called human epidermal growth factor 2 receptor; Fc part of the bought chimera not given

[18] = biological target: T18, rHuman P-Cadherin/Fc Chimera, CF (R&D Systems Cat#861-PC) (human, UniProt P22223 108-654); experiment: as above
T18 construct: Bought reagent; Fc part of the bought chimera not given

[19] = biological target: T19, rHuman IGF-1 sR, CF (R&D Systems Cat#391-GR) (human, UniProt P08069 31-932); experiment: as above
T19 construct: Bought soluble receptor; also called insulin-like growth factor-1 soluble receptor

[20] = biological target: T20, rHuman Erythropoietin R/Fc Chimera, CF (R&D Systems Cat#963-ER) (human, UniProt P19235 25-250); experiment: as above
T20 construct: Bought reagent; also called EPO R; EPO R/Fc; Fc part of the bought chimera not given
T20 sequence (looked up): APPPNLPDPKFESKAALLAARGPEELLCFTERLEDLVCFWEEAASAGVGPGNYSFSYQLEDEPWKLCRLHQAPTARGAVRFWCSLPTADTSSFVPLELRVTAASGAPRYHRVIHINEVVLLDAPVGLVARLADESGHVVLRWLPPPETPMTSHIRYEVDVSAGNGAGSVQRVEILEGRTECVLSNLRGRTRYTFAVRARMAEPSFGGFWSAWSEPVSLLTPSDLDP

[21] = biological target: T21, Recombinant Human DLL4 (R&D Systems Cat#1506-D4/CF) (human, UniProt Q9NR61 27-529); experiment: surface plasmon resonance, Fab against recombinant human DLL4; standard deviation in parentheses
T21 construct: Bought recombinant protein; also called rHuman DLL4; delta-like protein 4

[22] = biological target: T22, rHuman P-Cadherin/Fc Chimera, CF (R&D Systems Cat#861-PC) (human, UniProt P22223 108-654); experiment: ECL multispot (MSD) binding assay, antigen spotted on plate, Fab 0.04 uM;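 also: purified Fab incubated 1 h at 20 °C on antigen spots, detected via TAG-labelled antibody, ECL read against each well's blank, with signal-to-blank of at least 4 scored as binder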
T22 construct: Bought recombinant protein; Fc part of the bought chimera not given

[23] = biological target: T23, Recombinant Human DLL4 (R&D Systems Cat#1506-D4/CF) (human, UniProt Q9NR61 27-524); experiment: as above
T23 construct: Bought recombinant protein; also called delta-like protein 4; rHuman DLL4

[24] = biological target: T24, Recombinant Human DLL4 (human, UniProt Q9NR61 27-524); experiment: ECL (MSD) 96-well plate assay, DLL4 coated at 15 ug/mL, Fab 0.02 uM; signal over blank
T24 construct: Bought recombinant human DLL4 (R&D Systems Cat#1506-D4/CF), coated on the plate; also called delta-like protein 4; rHuman DLL4

[25] = biological target: T24, Recombinant Human DLL4; experiment: ECL (MSD) 96-well plate assay, DLL4 coated at 30 ug/mL, Fab 0.1 uM; signal over blank

T4 sequence (P08581 25-932, change not shown): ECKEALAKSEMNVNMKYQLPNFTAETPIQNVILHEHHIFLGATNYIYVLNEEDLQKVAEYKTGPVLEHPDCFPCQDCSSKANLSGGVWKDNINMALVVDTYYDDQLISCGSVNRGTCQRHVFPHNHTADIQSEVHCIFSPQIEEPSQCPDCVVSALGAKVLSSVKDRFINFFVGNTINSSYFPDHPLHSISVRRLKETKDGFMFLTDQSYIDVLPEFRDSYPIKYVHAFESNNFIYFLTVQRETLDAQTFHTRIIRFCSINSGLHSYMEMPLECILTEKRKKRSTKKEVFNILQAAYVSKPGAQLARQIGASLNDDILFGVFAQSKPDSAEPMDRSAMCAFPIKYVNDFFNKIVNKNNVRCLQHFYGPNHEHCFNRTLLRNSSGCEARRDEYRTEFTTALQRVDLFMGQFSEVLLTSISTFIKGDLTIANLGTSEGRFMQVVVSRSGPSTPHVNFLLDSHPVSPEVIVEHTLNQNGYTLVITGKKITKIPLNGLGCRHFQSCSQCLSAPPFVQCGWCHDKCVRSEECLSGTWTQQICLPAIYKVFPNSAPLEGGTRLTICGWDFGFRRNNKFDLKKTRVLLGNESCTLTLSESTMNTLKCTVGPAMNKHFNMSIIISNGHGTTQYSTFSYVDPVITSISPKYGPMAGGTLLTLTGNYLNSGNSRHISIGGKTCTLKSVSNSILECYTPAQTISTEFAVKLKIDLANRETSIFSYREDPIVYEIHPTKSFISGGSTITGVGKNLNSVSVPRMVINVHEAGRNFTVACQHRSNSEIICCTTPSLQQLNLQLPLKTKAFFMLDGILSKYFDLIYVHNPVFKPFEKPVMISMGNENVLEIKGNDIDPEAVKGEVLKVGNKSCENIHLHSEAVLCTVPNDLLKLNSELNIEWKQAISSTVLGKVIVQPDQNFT

B1: Fab VH1-46_IGHD6-6*01_IGHJ1*01 S102A/S103P/S104F/H111F G56A & L6_IGKJ1*01 (Fab, V domains shown)
VH: QVQLVQSGAEVKKPGASVKVSCKASGYTFTSYYMHWVRQAPGQGLEWMGIINPSGASTSYAQKFQGRVTMTRDTSTSTVYMELSSLRSEDTAVYYCAREEYAPFSAEYFQFWGQGTLVTVSS
VL: not shown
notes: Fab (CH1 with His6/Flag tags from Plasmid A, kappa CL from Plasmid C); also called APFF G56A
- ECL signal [1]: 330
- ECL signal [2]: 189000
- ECL signal [3]: 355
- ECL signal [4]: 313
- ECL signal [5]: 279
- ECL signal [6]: 466
- ECL signal [7]: 214
- ECL signal [8]: 331
- ECL signal [9]: 422

B2: Fab VH3-23_IGHD2-21*01>3_IGHJ6*01 H100E/S108P/Y113G/Y111H & V2-13_IGLJ2*01 (Fab, V domains shown)
VH: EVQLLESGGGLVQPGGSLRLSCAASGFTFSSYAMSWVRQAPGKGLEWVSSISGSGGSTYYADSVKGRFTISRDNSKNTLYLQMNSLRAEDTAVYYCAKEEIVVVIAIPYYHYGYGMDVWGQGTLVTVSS
VL: SSELTQDPAVSVALGQTVRITCQGDSLRSYYASWYQQKPGQAPVLVIYGKNNRPSGIPDRFSGSSSGNTASLTITGAQAEDEADYYCNSRDSSGNHLVVFGGGTKLTVL
notes: Fab made in E. coli: VH joined to CH1 (with His and Flag tags, plasmid A) and VL to lambda CL (plasmid E); also called EPG Y111H
- ECL signal/blank ratio [10]: 1.6
- ECL signal/blank ratio [11]: 7.7
- ECL signal/blank ratio [12]: 1.3
- ECL signal/blank ratio [13]: 1.2
- ECL signal/blank ratio [14]: 1.5

B3: Fab VH3-23_IGHD2-21*01>3_IGHJ6*01 H100E/S108P/Y113G Y114H & V2-13_IGLJ2*01 (Fab, V domains shown)
VH: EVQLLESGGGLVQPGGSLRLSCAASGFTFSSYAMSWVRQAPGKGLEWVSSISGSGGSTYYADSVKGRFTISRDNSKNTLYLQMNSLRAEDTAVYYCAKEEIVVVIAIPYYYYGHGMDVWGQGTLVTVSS
VL: SSELTQDPAVSVALGQTVRITCQGDSLRSYYASWYQQKPGQAPVLVIYGKNNRPSGIPDRFSGSSSGNTASLTITGAQAEDEADYYCNSRDSSGNHLVVFGGGTKLTVL
notes: Tested as Fab made in E. coli (VH-CH1 with His and Flag tags; lambda CL); also called EPG Y114H
- ECL multispot value [15]: 2.3
- ECL multispot value [16]: 1.8
- ECL multispot value [17]: 12.5
- ECL multispot value [18]: 27
- ECL multispot value [19]: 1.4
- ECL multispot value [20]: 120

Continued, values first:

- Kd [21]: 4.8 µM
B4: Fab VH5-51_IGHD5-18*01>3_IGHJ4*01 & V3-4_IGLJ1*01 (Fab, V domains shown)
VH: EVQLVQSGAEVKKPGESLKISCKGSGYSFTSYWIGWVRQMPGKGLEWMGIIYPGDSDTRYSPSFQGQVTISADKSISTAYLQWSSLKASDTAMYYCARRGYSYGYDYFDYWGQGTLVTVSS
VL: QTVVTQEPSFSVSPGGTVTLTCGLSSGSVSTSYYPSWYQQTPGQAPRTLIYSTNTRSSGVPDRFSGSILGNKAALTITGAQADDESDYYCVLYMGSGISYVFGTGTKVTVL
notes: Germline Fab made in E. coli: VH in Plasmid A (CH1, His6 and Flag tags), lambda VL in Plasmid E (lambda CL)

- ECL signal [22]: 474
- ECL signal [23]: 14900
B5: Fab VH5-51_IGHD5-18*01>3_IGHJ4*01 G100K/G104T (H:KT) & V3-4_IGLJ1*01 G97A (Fab, V domains shown)
VH: EVQLVQSGAEVKKPGESLKISCKGSGYSFTSYWIGWVRQMPGKGLEWMGIIYPGDSDTRYSPSFQGQVTISADKSISTAYLQWSSLKASDTAMYYCARRKYSYTYDYFDYWGQGTLVTVSS
VL: QTVVTQEPSFSVSPGGTVTLTCGLSSGSVSTSYYPSWYQQTPGQAPRTLIYSTNTRSSGVPDRFSGSILGNKAALTITGAQADDESDYYCVLYMGSAISYVFGTGTKVTVL
notes: Fab; Expressed from Plasmid A (CH1, His6 and Flag tags) and Plasmid E (lambda CL); also called KT & G97A

- Signal/Noise [24]: 25.6
- Signal/Noise [25]: 47.8
B6: Fab VH5-51_IGHD5-18*01>3_IGHJ4*01 G104S & V3-4_IGLJ1*01 (Fab, V domains shown)
VH: EVQLVQSGAEVKKPGESLKISCKGSGYSFTSYWIGWVRQMPGKGLEWMGIIYPGDSDTRYSPSFQGQVTISADKSISTAYLQWSSLKASDTAMYYCARRGYSYSYDYFDYWGQGTLVTVSS
VL: QTVVTQEPSFSVSPGGTVTLTCGLSSGSVSTSYYPSWYQQTPGQAPRTLIYSTNTRSSGVPDRFSGSILGNKAALTITGAQADDESDYYCVLYMGSGISYVFGTGTKVTVL
notes: Fab; VH-CH1 (His6/Flag, Plasmid A) and VL-lambda CL (Plasmid E)
